Tests used:
LARP4A NTR [1] = biological target: T1, LARP4A NTR (Homo sapiens, UniProt Q71RC2 1-111); assay: EMSA; with competitor tRNA; retains majority of affinity; Kd only in figure; EMSA: 20 mM Tris pH 7.25, 200 mM KCl, 5% glycerol, 1 mM DTT, 0.1 mg/ml BSA, 0.01 mg/ml E. coli tRNA, on ice, gel at 4 C; MST: 20 mM Tris pH 7.25, 100 mM KCl, 0.2 mM EDTA, 1 mM DTT, 0.05% Tween-20, 25 C; conditions: protein: recombinant; tags: His (TEV) or His-SUMO, cleaved; label: 5' 32P (EMSA); unlabelled (NMR, native MS); single strand
LARP4A NTD [2] = biological target: T2, LARP4A NTD (Homo sapiens, UniProt Q71RC2 1-287); assay: EMSA; with competitor tRNA; low micromolar Kd, >100-fold tighter than La module; value only in figure; EMSA: 20 mM Tris pH 7.25, 200 mM KCl, 5% glycerol, 1 mM DTT, 0.1 mg/ml BSA, 0.01 mg/ml E. coli tRNA, on ice, gel at 4 C; MST: 20 mM Tris pH 7.25, 100 mM KCl, 0.2 mM EDTA, 1 mM DTT, 0.05% Tween-20, 25 C; conditions: protein: recombinant; tags: His tag (TEV) or His-SUMO, cleaved; label: 5' 32P (EMSA); unlabelled (NMR, native MS); single strand
LARP4A 1-50 = biological target: T3, LARP4A 1-50 (Homo sapiens, UniProt Q71RC2 1-50); assay: EMSA; up to 200 uM protein; EMSA: 20 mM Tris pH 7.25, 200 mM KCl, 5% glycerol, 1 mM DTT, 0.1 mg/ml BSA, 0.01 mg/ml E. coli tRNA, on ice, gel at 4 C; MST: 20 mM Tris pH 7.25, 100 mM KCl, 0.2 mM EDTA, 1 mM DTT, 0.05% Tween-20, 25 C; conditions: protein: recombinant; tags: His-SUMO, cleaved; label: 5' 32P (EMSA); unlabelled (NMR, native MS); single strand
T3 chain: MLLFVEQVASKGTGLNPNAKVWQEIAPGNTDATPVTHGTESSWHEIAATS

LARP4A 1-79 = LARP4A 1-79 (Homo sapiens, UniProt Q71RC2 1-79); assay: as above; conditions: protein: recombinant; tags: His-SUMO, cleaved; label: 5' 32P (EMSA); unlabelled (NMR, native MS); single strand
LARP4A La module = LARP4A La module (Homo sapiens, UniProt Q71RC2 111-287); assay: NMR; small shifts, almost exclusively RRM1; 100 mM KCl; EMSA: 20 mM Tris pH 7.25, 200 mM KCl, 5% glycerol, 1 mM DTT, 0.1 mg/ml BSA, 0.01 mg/ml E. coli tRNA, on ice, gel at 4 C; MST: 20 mM Tris pH 7.25, 100 mM KCl, 0.2 mM EDTA, 1 mM DTT, 0.05% Tween-20, 25 C; conditions: protein: recombinant; tags: His tag, TEV-cleaved; label: 5' 32P (EMSA); unlabelled (NMR, native MS); single strand
Sequence of LARP4A La module (Q71RC2 111-287): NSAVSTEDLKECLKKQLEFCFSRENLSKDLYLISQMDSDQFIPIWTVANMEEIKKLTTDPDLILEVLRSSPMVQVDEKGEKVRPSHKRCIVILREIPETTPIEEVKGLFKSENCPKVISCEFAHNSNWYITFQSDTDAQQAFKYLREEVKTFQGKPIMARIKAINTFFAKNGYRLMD

LARP4A NTD [3] = biological target: T2, LARP4A NTD; assay: MST; 25 C; agrees with EMSA; Kd only in figure; EMSA: 20 mM Tris pH 7.25, 200 mM KCl, 5% glycerol, 1 mM DTT, 0.1 mg/ml BSA, 0.01 mg/ml E. coli tRNA, on ice, gel at 4 C; MST: 20 mM Tris pH 7.25, 100 mM KCl, 0.2 mM EDTA, 1 mM DTT, 0.05% Tween-20, 25 C; conditions: protein: recombinant; tags: His tag (TEV) or His-SUMO, cleaved; label: 5' fluorescein (FAM); single strand
LARP4A NTR [4] = biological target: T1, LARP4A NTR; assay: as above; conditions: protein: recombinant; tags: His (TEV) or His-SUMO, cleaved; label: 5' fluorescein (FAM); single strand

Row | Binder | binding result (LARP4A NTR [1]) | binding result (LARP4A NTD [2]) | binding result (LARP4A 1-50) | binding result (LARP4A 1-79) | binding result (LARP4A La module) | binding result (LARP4A NTD [3]) | binding result (LARP4A NTR [4])
1 | AAAAAAAAAAAAAAA (ssRNA) [oligoA15] | binds | binds | no binding | no binding | binds | – | –
2 | AAAAAAAAAAAAAAAAAAAA (ssRNA) [5'FAM-oligoA20] | – | – | – | – | – | binds | binds

Reference: paper PMC6486636, “LARP4A recognizes polyA RNA via a novel binding mechanism mediated by disordered regions and involving the PAM2w motif, revealing interplay between PABP, LARP4A and mRNA”
